What was measured:
[1] = test system: N[C@@H](Cc1c[nH]c2ccccc12)C(=O)O; test: decarboxylase kinetics, Michaelis-Menten fit; product tryptamine by LC-MS; assay type: biochemical, Oryza sativa; details: 50 ppm PLP, 10-1,250 uM tryptophan, assay buffer of the standard assay 50 mM Tris-HCl pH 8.0, 37 C
[2] = test system: T1, TraesCS1D01G052500; test: as above; assay type: biochemical, Triticum aestivum; details: 50 ppm PLP; 10-1,250 uM tryptophan; assay buffer of the standard assay 50 mM Tris-HCl pH 8.0, 37 C
T1 construct: gene TDC; full-length cDNA in pGEX-6p-1; E. coli BL21(DE3)

Row | Km [2] | Compound | Km [1] | kcat [1] | kcat/Km [1]
1 | – | OsTDC1 (Oryza sativa Japonica Group) | 310 ± 30 µM | 3.66 ± 0.27 s⁻¹ | 11800 M⁻¹ s⁻¹
2 | 100 ± 10 µM | N[C@@H](Cc1c[nH]c2ccccc12)C(=O)O [tryptophan] | – | – | –
